Data reported in IntAct's records for PubMed 23871208.

B1: Tyrosine-protein phosphatase non-receptor type 22 (Homo sapiens), Q9Y2R2 (parent)
chain: MDQREILQKFLDEAQSKKITKEEFANEFLKLKRQSTKYKADKTYPTTVAEKPKNIKKNRYKDILPYDYSRVELSLITSDEDSSYINANFIKGVYGPKAYIATQGPLSTTLLDFWRMIWEYSVLIIVMACMEYEMGKKKCERYWAEPGEMQLEFGPFSVSCEAEKRKSDYIIRTLKVKFNSETRTIYQFHYKNWPDHDVPSSIDPILELIWDVRCYQEDDSVPICIHCSAGCGRTGVICAIDYTWMLLKDGIIPENFSVFSLIREMRTQRPSLVQTQEQYELVYNAVLELFKRQMDVIRDKHSGTESQAKHCIPEKNHTLQADSYSPNLPKSTTKAAKMMNQQRTKMEIKESSSFDFRTSEISAKEELVLHPAKSSTSFDFLELNYSFDKNADTTMKWQTKAFPIVGEPLQKHQSLDLGSLLFEGCSNSKPVNAAGRYFNSKVPITRTKSTPFELIQQRETKEVDSKENFSYLESQPHDSCFVEMQAQKVMHVSSAELNYSLPYDSKHQIRNASNVKHHDSSALGVYSYIPLVENPYFSSWPPSGTSSKMSLDLPEKQDGTVFPSSLLPTSSTSLFSYYNSHDSLSLNSPTNISSLLNQESAVLATAPRIDDEIPPPLPVRTPESFIVVEEAGEFSPNVPKSLSSAVKVKIGTSLEWGGTSEPKKFDDSVILRPSKSVKLRSPKSELHQDRSSPPPPLPERTLESFFLADEDCMQAQSIETYSTSYPDTMENSTSSKQTLKTPGKSFTRSKSLKILRNMKKSICNSCPPNKPAESVQSNNSSSFLNFGFANRFSKPKGPRNPPPTWNI
partner: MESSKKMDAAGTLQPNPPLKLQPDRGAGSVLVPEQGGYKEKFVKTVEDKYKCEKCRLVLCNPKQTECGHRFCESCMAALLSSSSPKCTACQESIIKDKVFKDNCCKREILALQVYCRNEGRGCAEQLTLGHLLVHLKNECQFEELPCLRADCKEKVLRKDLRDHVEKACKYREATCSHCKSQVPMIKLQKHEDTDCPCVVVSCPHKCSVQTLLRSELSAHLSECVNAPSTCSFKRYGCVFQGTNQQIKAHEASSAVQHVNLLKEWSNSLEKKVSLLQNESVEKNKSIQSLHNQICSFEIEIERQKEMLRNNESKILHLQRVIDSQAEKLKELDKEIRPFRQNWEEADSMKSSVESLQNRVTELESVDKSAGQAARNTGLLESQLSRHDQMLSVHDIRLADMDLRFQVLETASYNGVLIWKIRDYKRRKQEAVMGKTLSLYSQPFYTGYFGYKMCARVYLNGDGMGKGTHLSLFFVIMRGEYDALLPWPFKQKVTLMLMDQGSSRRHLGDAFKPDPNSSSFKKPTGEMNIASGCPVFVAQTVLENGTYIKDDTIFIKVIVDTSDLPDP

Variants of: B1
Settings: with traf3_mouse Traf3, Q60803
In the case of R620W, the “effect of a mutation on the interaction” value is reported as “decreasing interaction strength”.
